From FireProtDB (doi:10.1006/jmbi.2000.3776) come the findings set out here.

A word on the Tm: it is the temperature at the midpoint of the melting transition.

To fix the notation:
B1: Major outer membrane lipoprotein Lpp, P69776 (parent)
chain: MKATKLVLGAVILGSTLLAGCSSNAKIDQLSSDVQTLNAKVDQLSNDVNAMRSDVQAAKDDAARANQRLDNMATKYRK

The series covers variants of B1. To be noted: Escherichia coli (strain K12), pH 7, CD, structure 1EQ7, whole UniProt chain shown; for ddG of mutation (higher = less stable) / unfolding free energy: 4 °C, GdnHCl, PBS; for Tm / change of melting temperature, mutant - wild type (higher = more stable): Thermal, Sodium phosphate 50mM, NaCl 150mM.

For the variant Y76A, the “ddG of mutation (higher = less stable)” value worked out at 1.1 kcal/mol; the unfolding free energy amounted to 19.4 kcal/mol; the Tm was determined as 63 °C; the “change of melting temperature, mutant - wild type (higher = more stable)” value was -4 °C.
For S23A, the “ddG of mutation (higher = less stable)” value is 0.8 kcal/mol; the unfolding free energy amounted to 19.7 kcal/mol; the melting temperature (Tm) was 64 °C; the “change of melting temperature, mutant - wild type (higher = more stable)” value was -3 °C.
